Test results published in patent US20190071467A1.

How the values were obtained:
[1] = target: VDAC1 on intact mitochondria purified from NSC34 cells (mouse (NSC34 cell line)) (UniProt Q60932); experiment: competition with SOD1-G93A on intact NSC34 mitochondria, fractionation, immunoblot
[2] = target: human VDAC1, recombinant, C-terminal His-tag, refolded in LDAO (human) (UniProt P21796); experiment: competition pull-down on VDAC1-coated magnetic beads (30 uM VDAC1, 6.5 uM SOD1-G93A), anti-SOD1 immunoblot
UniProt P21796, sequence (P21796 other isoform, or with tags, fused parts or gaps limits assumed): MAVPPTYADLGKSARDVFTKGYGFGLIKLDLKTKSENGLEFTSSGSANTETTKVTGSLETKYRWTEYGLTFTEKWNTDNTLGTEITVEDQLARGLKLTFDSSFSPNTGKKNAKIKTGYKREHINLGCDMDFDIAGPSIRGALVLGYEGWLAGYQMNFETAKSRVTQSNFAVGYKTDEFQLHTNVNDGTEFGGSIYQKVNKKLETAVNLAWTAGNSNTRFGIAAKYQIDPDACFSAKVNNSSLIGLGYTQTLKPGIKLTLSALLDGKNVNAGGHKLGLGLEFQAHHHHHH

UniProt Q60932, sequence (Q60932 whole entry): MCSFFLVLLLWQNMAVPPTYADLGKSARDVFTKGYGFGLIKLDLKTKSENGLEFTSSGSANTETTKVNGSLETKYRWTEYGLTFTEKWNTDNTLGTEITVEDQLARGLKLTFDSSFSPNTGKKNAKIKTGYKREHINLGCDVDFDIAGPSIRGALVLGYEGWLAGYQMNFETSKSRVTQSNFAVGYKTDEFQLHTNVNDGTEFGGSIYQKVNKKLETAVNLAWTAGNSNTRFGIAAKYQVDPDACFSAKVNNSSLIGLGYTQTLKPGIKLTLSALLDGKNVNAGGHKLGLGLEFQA

IAAQLLAYYFT [synthetic peptide NHK1]
percent decrease of SOD1-G93A bound to mitochondria at 60 µM NHK1 [1]: 90%
percent reduction of SOD1-G93A bound to VDAC1 at 10 µM NHK1 [2]: 40%
percent reduction of SOD1-G93A bound to VDAC1 at 25 µM NHK1 [2]: 80%
